# Measured values: patent US9567641B2, “Combination therapy for the treatment of cancer using an anti-C-met antibody” (SAMSUNG ELECTRONICS CO., LTD., priority 2013, dated 2017)
# Experiments:
# [1] = test system: HCC1954 breast cancer cells; experiment: Cell viability, CellTiter Glo, combination with L3-1Y/IgG2 antibody; assay type: cell-based; settings: L3-1Y/IgG2 antibody alone (negative control siRNA)
# Procedure: The efficacy of the combination administration of ITGB3 siRNA and L3-1Y/IgG2 antibody was examined in a breast cancer cell line on which the anti-c-Met antibody alone has no effects. For this, HCC1806 (ATCC, CRL-2335) and HCC1954 (ATCC, CRL-2338) cells were used.
# As a control group, All Negative control siRNA (Qiagen, cat. no. 1027281) was used, and as a target siRNA, a mixture of two kinds of siRNAs (see Table 7) that had effects during the screening was used. Transfection was carried out by the same procedures as Example 3.1 and after 24 hours, the cultured cells were treated with L3-1Y/IgG2 antibody at 0 ug/ml, 0.016 ug/ml, 0.08 ug/ml, 0.4 ug/ml, or 2 ug/ml. 72 hours later after the treatment, 100 uL of CellTiter Glo solution (Promega, G7572) was added to each well, which was allowed to stay at a room temperature for 30 min. The number of cells was counted via luminescence signals, which were recorded using Envision 2104 Multi-label Reader (Perkin Elmer).
# [2] = test system: EBC1 lung cancer cell line; experiment: Cell viability, CellTiter Blue, combination with L3-1Y/IgG2 antibody; assay type: cell-based; settings: for concentration at which the L3-1Y/IgG2 antibody showed the maximized efficacy: 5 days
# Procedure: The efficacy of the combination administration of RAF1 siRNA and L3-1Y/IgG2 antibody was examined in lung cancer cell line on which the anti-c-Met antibody has an effect. For this, EBC1 (JCRB, JCRB0820) cells were used. As a control group, All Negative control siRNA (Qiagen, cat. no. 1027281) was used, and as a target siRNA, a mixture of two kinds of siRNAs (see Table 7) that had effects during the screening was used. Transfection was carried out by the same procedures as Example 3.1 and after 24 hours, the cultured cells were treated with L3-1Y/IgG2 antibody at 0 ug/ml, 0.016 ug/ml, 0.08 ug/ml, 0.4 ug/ml, or 2 ug/ml. After 5 days of treatment, for cell number counting, 20 ul of a diluting solution of CellTiter Blue (Promega, G8081) and HBSS at 1:1 was added to each well, which was incubated at 37° C. for 4 hours. Then, the number of cells was counted via fluorescence signals (560/590 nm), which were measured using Envision 2104 Multi-label Reader (Perkin Elmer).
molecule,measurement,setting,value
"L3-1Y/IgG2: anti-c-Met antibody: huAbF46-H4-A1 heavy chain variable region, human IgG2 hinge and constant region, kappa light chain with H36Y (antibody) heavy: EVQLVESGGGLVQPGGSLRLSCAASGFTFTDYYMSWVRQAPGKGLEWLGFIRNKANGYTTEYSASVKGRFTISRDNSKNTLYLQMNSLRAEDTAVYYCARDNWFAYWGQGTLVTVSSASTKGPSVFPLAPCSRSTSESTAALGCLVKDYFPEPVTVSWNSGALTSGVHTFPAVLQSSGLYSLSSVVTVPSSNFGTQTYTCNVDHKPSNTKVDKTVERKCCVECPPCPAPPVAGPSVFLFPPKPKDTLMISRTPEVTCVVVDVSHEDPEVQFNWYVDGVEVHNAKTKPREEQFNSTFRVVSVLTVVHQDWLNGKEYKCKVSNKGLPAPIEKTISKTKGQPREPQVYTLPPSREEMTKNQVSLTCLVKGFYPSDIAVEWESNGQPENNYKTTPPMLDSDGSFFLYSKLTVDKSRWQQGNVFSCSVMHEALHNHYTQKSLSLSPGK light: DIQMTQSPSSLSASVGDRVTITCKSSQSLLASGNQNNYLAWYQQKPGKAPKMLIIWASTRVSGVPSRFSGSGSGTDFTLTISSLQPEDFATYYCQQSYSRPYTFGQGTKVEIKRTVAAPSVFIFPPSDEQLKSGTASVVCLLNNFYPREAKVQWKVDNALQSGNSQESVTEQDSKDSTYSLSSTLTLSKADYEKHKVYACEVTHQGLSSPVTKSFNRGEC",cancer cell growth inhibitory efficacy (cell viability),[1],did not occur
same,concentration at which the L3-1Y/IgG2 antibody showed the maximized efficacy,[2]; co-treated with RAF1 siRNA,0.016 µg/mL
same,decrease of the concentration of maximized efficacy by RAF1 siRNA co-treatment,[2]; with versus without RAF1 siRNA,⅕
same,concentration at which the L3-1Y/IgG2 antibody showed the maximized efficacy,[2]; without RAF1 siRNA (negative control siRNA),0.08 µg/mL
